This passage reports Km results from article PMC6890836, “Exploiting Substrate Promiscuity of Ectoine Hydroxylase for Regio- and Stereoselective Modification of Homoectoine” (Frontiers in Microbiology, 2019).

What all share (assay): purified protein
Substrate in data set [1]: CC1=NC(C(=O)O)CCCN1
It is filed as biochemical, Stutzerimonas stutzeri. Particulars: 10 mM 2-oxoglutarate, 1 mM FeSO4, 100 mM KCl, 100 mM TES pH 7.5, 35 °C, no catalase.

Substrate in data set [2]: CC1=N[C@H](C(=O)O)CCN1
It is filed as biochemical, Stutzerimonas stutzeri. Particulars: 10 mM 2-oxoglutarate, 1 mM FeSO4, 100 mM KCl, 100 mM TES pH 7.5, 35 °C, no catalase.

Substrate in data set [3]: CC1=NC(C(=O)O)CCCN1
It is filed as biochemical, Sphingopyxis alaskensis. The note with it: 10 mM 2-oxoglutarate, 1 mM FeSO4, 100 mM KCl, 100 mM TES pH 7.5, 15 °C, 1300 U bovine catalase.

Substrate in data set [4]: CC1=N[C@H](C(=O)O)CCN1
It counts as biochemical, Sphingopyxis alaskensis. The note with it: 10 mM 2-oxoglutarate, 1 mM FeSO4, 100 mM KCl, 100 mM TES pH 7.5, 15 °C, 1300 U bovine catalase.

B1: (Ps)EctD, ectoine hydroxylase from P. stutzeri A1501 (Stutzerimonas stutzeri A1501) (protein)
chain: MQADLYPSRQEDQPSWQERLDPVVYRSDLENAPIAAELVERFERDGYLVIPNLFSADEVALFRAELERMRQDPAVAGSGKTIKEPDSGAIRSVFAIHKDNELFARVAADERTAGIARFILGGDLYVHQSRMNFKPGFTGKEFYWHSDFETWHIEDGMPRMRCLSCSILLTDNEPHNGPLMLMPGSHKHYVRCVGATPENHYEKSLRKQEIGIPDQNSLSELASRFGIDCATGPAGSVVFFDCNTMHGSNGNITPSARSNLFYVYNHVDNAVQAPFCEQKPRPAFVAERENFKPLDIRPQQYL
notes: full-length, Strep-tag II fusion (tag kept), from plasmid pMP41 in E. coli BL21(DE3); EctD is a dimer in solution
For orientation: Km means the concentration of substrate that gives half-maximal velocity. On to B1, for which the Km came to 2600 ± 200 µM in data set [1] and 2300 ± 200 µM in data set [2].

B2: (Sa)EctD, ectoine hydroxylase from S. alaskensis (Sphingopyxis alaskensis RB2256) (protein)
chain: MQDLYPSRQRADAEMRPRLDPVVHSEWTNDAPISARQAAAFDRDGYIVLEDIFSADEVAFLQKAAGNLLADPAALDADTIVTEPQSNEIRSIFEIHAQSPVMARLAADARLADVARFLLGDEVYIHQSRLNYKPGFKGREFYWHSDFETWHVEDGMPRMRALSMSVLLAENTPHNGPLMVIPGSHRTYLTCVGETPDDHYLSSLKKQEYGVPDEESLAELAHRHGIVAPTGKPGTVILFDCNLMHGSNGNITPFPRANAFLVYNAVSNRLEKPFGVEKPRPWFLARRGEPAALRVERGPLVETVPA
notes: full-length, Strep-tag II fusion (tag kept), from plasmid pMP40 in E. coli BL21(DE3); dimer
For B2, the Km in data set [3] came out at 3100 ± 300 µM; in data set [4], 800 ± 100 µM.
